Measurements: article PMC9352680, “A comprehensive thermodynamic model for RNA binding by the Saccharomyces cerevisiae Pumilio protein PUF4”

The binders below were run against T1, PUF4 RNA-binding domain (Saccharomyces cerevisiae, UniProt P25339 537-888) (assay: Mg; RNA-MaP; 20 mM Na-HEPES pH 7.4, 30 mM KOAc, 0.75 mM MgCl2, 0.1% Tween-20, 5% glycerol, 0.1 mg/mL BSA, 2 mM DTT; 25 C; 0.0125-409.6 nM protein). Conditions: tags: N-His6-TEV cleaved; C-SNAP kept, Cy3B-labelled; label: tethered on chip by stalled RNA polymerase.
T1 sequence: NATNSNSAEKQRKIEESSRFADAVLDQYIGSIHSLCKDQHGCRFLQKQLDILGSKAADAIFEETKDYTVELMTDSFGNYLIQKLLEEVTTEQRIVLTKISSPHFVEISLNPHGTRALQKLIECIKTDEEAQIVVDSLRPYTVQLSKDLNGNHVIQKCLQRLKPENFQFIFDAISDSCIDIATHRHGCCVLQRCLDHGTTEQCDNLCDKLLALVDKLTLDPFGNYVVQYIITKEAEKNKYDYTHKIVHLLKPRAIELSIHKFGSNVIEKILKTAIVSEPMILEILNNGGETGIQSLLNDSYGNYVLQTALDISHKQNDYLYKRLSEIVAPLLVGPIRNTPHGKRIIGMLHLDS

Binder | Kd
UCUCUUUGUAUUUUUUCUCUU (ssRNA) [Ib_S1_P4E.1_K4.1_C4.1_H4.1_A4.1_[A6T]_F4.1_[A9T]_T4.1] | 20.9 nM
UCUCUUUGUAUGUUUUCUCUU (ssRNA) [Ic_S1_P4E.1_K4.1_C4.1_H4.1_A4.1_[A6G]_F4.1_[A9T]_T4.1] | 40 nM
UCUCUUUGUAUAGUGUCUCUU (ssRNA) [Ib_S1_P4E.1_K4.1_C4.1_H4.1_A4.1_[T7G]_F4.1_[A9G]_T4.1] | 13 nM
UCUCUUUGUAUCUUUUCUCUU (ssRNA) [Ib_S1_P4E.1_K4.1_C4.1_H4.1_A4.1_[A6C]_F4.1_[A9T]_T4.1] | 20.9 nM
Ic_S4_P5E.1_K5.1_C5.1_H5.1_A5.1_[T6A]_[A7C]_F5.1_[T8A]_[T9C]_[A10T]_T5.1 (ssRNA) RNA: UUUGACAACUGAUCGUUCUUUCUUGUAUACACUUUCUUUCUCGAUCAGUUGUCUUU | 75.1 nM
Ic_S4_P5E.1_K5.1_C5.1_H5.1_A5.1_[T5A]_F5.1_[T8A]_[T9C]_[A10T]_T5.1 (ssRNA) RNA: UUUGACAACUGAUCGUUCUUUCUUGUAAUAACUUUCUUUCUCGAUCAGUUGUCUUU | 561 nM
Ic_S4_P5E.1_K5.1_C5.1_H5.1_A5.1_[T6C]_[A7G]_F5.1_[T8C]_[T9C]_T5.1 (ssRNA) RNA: UUUGACAACUGAUCGUUCUUUCUUGUAUCGCCAUUCUUUCUCGAUCAGUUGUCUUU | 850 nM
Ic_S4_P5E.1_K5.1_C5.1_H5.1_A5.1_[T5C]_[T6G]_[A7C]_F5.1_[T8A]_[T9G]_[A10C]_T5.1 (ssRNA) RNA: UUUGACAACUGAUCGUUCUUUCUUGUACGCAGCUUCUUUCUCGAUCAGUUGUCUUU | 882 nM
Ic_S4_P5E.1_K5.1_C5.1_H5.1_A5.1_[T5C]_[A7C]_F5.1_[T8A]_[T9C]_[A10G]_T5.1 (ssRNA) RNA: UUUGACAACUGAUCGUUCUUUCUUGUACUCACGUUCUUUCUCGAUCAGUUGUCUUU | > 2300 nM
Ic_S4_P5E.1_K5.1_C5.1_H5.1_A5.1_[T5C]_[A7T]_F5.1_[T8A]_[T9C]_[A10G]_T5.1 (ssRNA) RNA: UUUGACAACUGAUCGUUCUUUCUUGUACUUACGUUCUUUCUCGAUCAGUUGUCUUU | 561 nM
Ic_S4_P5E.1_K5.1_C5.1_H5.1_A5.1_[T5C]_[T6A]_[A7T]_F5.1_[T8C]_[T9C]_T5.1 (ssRNA) RNA: UUUGACAACUGAUCGUUCUUUCUUGUACAUCCAUUCUUUCUCGAUCAGUUGUCUUU | 20.4 nM
Ic_S4_P5E.1_K5.1_C5.1_H5.1_A5.1_[A7G]_F5.1_[T8G]_[A10T]_T5.1 (ssRNA) RNA: UUUGACAACUGAUCGUUCUUUCUUGUAUUGGUUUUCUUUCUCGAUCAGUUGUCUUU | 881 nM
Ic_S4_P5E.1_K5.1_C5.1_H5.1_A5.1_[T6A]_[A7C]_F5.1_[T8C]_[T9C]_[A10G]_T5.1 (ssRNA) RNA: UUUGACAACUGAUCGUUCUUUCUUGUAUACCCGUUCUUUCUCGAUCAGUUGUCUUU | 117 nM
Ic_S4_P5E.1_K5.1_C5.1_H5.1_A5.1_[A7C]_F5.1_[T8G]_[A10T]_T5.1 (ssRNA) RNA: UUUGACAACUGAUCGUUCUUUCUUGUAUUCGUUUUCUUUCUCGAUCAGUUGUCUUU | 59.5 nM
Ic_S4_P5E.1_K5.1_C5.1_H5.1_A5.1_[T6G]_[A7C]_F5.1_[T8C]_[T9C]_[A10T]_T5.1 (ssRNA) RNA: UUUGACAACUGAUCGUUCUUUCUUGUAUGCCCUUUCUUUCUCGAUCAGUUGUCUUU | 527 nM
Ic_S4_P5E.1_K5.1_C5.1_H5.1_A5.1_[T6A]_[A7T]_F5.1_[T9C]_[A10C]_T5.1 (ssRNA) RNA: UUUGACAACUGAUCGUUCUUUCUUGUAUAUUCCUUCUUUCUCGAUCAGUUGUCUUU | 3.74 nM
Ic_S4_P5E.1_K5.1_C5.1_H5.1_A5.1_[T5C]_[T6A]_[A7G]_F5.1_[T9C]_[A10C]_T5.1 (ssRNA) RNA: UUUGACAACUGAUCGUUCUUUCUUGUACAGUCCUUCUUUCUCGAUCAGUUGUCUUU | 13.2 nM
Ic_S4_P5E.1_K5.1_C5.1_H5.1_A5.1_[T6C]_[A7G]_F5.1_[T8A]_[A10C]_T5.1 (ssRNA) RNA: UUUGACAACUGAUCGUUCUUUCUUGUAUCGAUCUUCUUUCUCGAUCAGUUGUCUUU | 1840 nM
Ic_S4_P5E.1_K5.1_C5.1_H5.1_A5.1_[T5C]_[T6A]_[A7T]_F5.1_[T8A]_[T9C]_[A10G]_T5.1 (ssRNA) RNA: UUUGACAACUGAUCGUUCUUUCUUGUACAUACGUUCUUUCUCGAUCAGUUGUCUUU | 14.5 nM
Ic_S4_P5E.1_K5.1_C5.1_H5.1_A5.1_[T5C]_[T6A]_[A7T]_F5.1_[T8A]_[T9G]_[A10T]_T5.1 (ssRNA) RNA: UUUGACAACUGAUCGUUCUUUCUUGUACAUAGUUUCUUUCUCGAUCAGUUGUCUUU | 5 nM
Ic_S4_P5E.1_K5.1_C5.1_H5.1_A5.1_[T5C]_[T6A]_F5.1_[T8A]_[T9C]_[A10T]_T5.1 (ssRNA) RNA: UUUGACAACUGAUCGUUCUUUCUUGUACAAACUUUCUUUCUCGAUCAGUUGUCUUU | 80.6 nM
Ic_S4_P5E.1_K5.1_C5.1_H5.1_A5.1_[T5A]_[A7T]_F5.1_[T8C]_[T9C]_[A10T]_T5.1 (ssRNA) RNA: UUUGACAACUGAUCGUUCUUUCUUGUAAUUCCUUUCUUUCUCGAUCAGUUGUCUUU | 179 nM
Ic_S4_P5E.1_K5.1_C5.1_H5.1_A5.1_[T5C]_[T6A]_[A7C]_F5.1_[T8A]_[A10G]_T5.1 (ssRNA) RNA: UUUGACAACUGAUCGUUCUUUCUUGUACACAUGUUCUUUCUCGAUCAGUUGUCUUU | 130 nM

Binder | Kd
Ic_S4_P5E.1_K5.1_C5.1_H5.1_A5.1_[T6A]_F5.1_[T9G]_[A10G]_T5.1 (ssRNA) RNA: UUUGACAACUGAUCGUUCUUUCUUGUAUAAUGGUUCUUUCUCGAUCAGUUGUCUUU | 16.6 nM
Ic_S4_P5E.1_K5.1_C5.1_H5.1_A5.1_[T5A]_[T6A]_[A7T]_F5.1_[T8C]_[T9A]_[A10G]_T5.1 (ssRNA) RNA: UUUGACAACUGAUCGUUCUUUCUUGUAAAUCAGUUCUUUCUCGAUCAGUUGUCUUU | 180 nM
Ic_S4_P5E.1_K5.1_C5.1_H5.1_A5.1_[T6C]_[A7T]_F5.1_[T8A]_T5.1 (ssRNA) RNA: UUUGACAACUGAUCGUUCUUUCUUGUAUCUAUAUUCUUUCUCGAUCAGUUGUCUUU | 3.97 nM
Ic_S4_P5E.1_K5.1_C5.1_H5.1_A5.1_[T5A]_[A7C]_F5.1_[T8A]_[T9G]_[A10C]_T5.1 (ssRNA) RNA: UUUGACAACUGAUCGUUCUUUCUUGUAAUCAGCUUCUUUCUCGAUCAGUUGUCUUU | 1930 nM
Ic_S4_P5E.1_K5.1_C5.1_H5.1_A5.1_[T5C]_[A7G]_F5.1_[T8G]_T5.1 (ssRNA) RNA: UUUGACAACUGAUCGUUCUUUCUUGUACUGGUAUUCUUUCUCGAUCAGUUGUCUUU | 34 nM
Ic_S4_P5E.1_K5.1_C5.1_H5.1_A5.1_[T5G]_[T6C]_F5.1_[T9A]_[A10C]_T5.1 (ssRNA) RNA: UUUGACAACUGAUCGUUCUUUCUUGUAGCAUACUUCUUUCUCGAUCAGUUGUCUUU | 6.93 nM
Ic_S4_P5E.1_K5.1_C5.1_H5.1_A5.1_[T5A]_F5.1_[T8C]_[T9C]_[A10T]_T5.1 (ssRNA) RNA: UUUGACAACUGAUCGUUCUUUCUUGUAAUACCUUUCUUUCUCGAUCAGUUGUCUUU | 379 nM
Ic_S4_P5E.1_K5.1_C5.1_H5.1_A5.1_[T5C]_[T6C]_[A7T]_F5.1_[T8A]_[T9G]_[A10C]_T5.1 (ssRNA) RNA: UUUGACAACUGAUCGUUCUUUCUUGUACCUAGCUUCUUUCUCGAUCAGUUGUCUUU | 74.3 nM
Ic_S4_P5E.1_K5.1_C5.1_H5.1_A5.1_[T5G]_[T6C]_[A7G]_F5.1_[T9A]_T5.1 (ssRNA) RNA: UUUGACAACUGAUCGUUCUUUCUUGUAGCGUAAUUCUUUCUCGAUCAGUUGUCUUU | 25.3 nM
Ic_S4_P5E.1_K5.1_C5.1_H5.1_A5.1_[T6C]_[A7T]_F5.1_[T8C]_[A10G]_T5.1 (ssRNA) RNA: UUUGACAACUGAUCGUUCUUUCUUGUAUCUCUGUUCUUUCUCGAUCAGUUGUCUUU | 19.1 nM
Ic_S4_P5E.1_K5.1_C5.1_H5.1_A5.1_[T5C]_[T6C]_F5.1_[T8C]_[T9A]_[A10T]_T5.1 (ssRNA) RNA: UUUGACAACUGAUCGUUCUUUCUUGUACCACAUUUCUUUCUCGAUCAGUUGUCUUU | 158 nM
Ic_S4_P5E.1_K5.1_C5.1_H5.1_A5.1_[A7T]_F5.1_[T9C]_[A10T]_T5.1 (ssRNA) RNA: UUUGACAACUGAUCGUUCUUUCUUGUAUUUUCUUUCUUUCUCGAUCAGUUGUCUUU | 15.6 nM
Ic_S4_P5E.1_K5.1_C5.1_H5.1_A5.1_[T5C]_[T6A]_F5.1_[T9C]_[A10T]_T5.1 (ssRNA) RNA: UUUGACAACUGAUCGUUCUUUCUUGUACAAUCUUUCUUUCUCGAUCAGUUGUCUUU | 19.7 nM
Ic_S4_P5E.1_K5.1_C5.1_H5.1_A5.1_[T5G]_[T6C]_[A7T]_F5.1_[T9A]_[A10C]_T5.1 (ssRNA) RNA: UUUGACAACUGAUCGUUCUUUCUUGUAGCUUACUUCUUUCUCGAUCAGUUGUCUUU | 24.4 nM
Ic_S4_P5E.1_K5.1_C5.1_H5.1_A5.1_[T6C]_F5.1_[T9G]_[A10C]_T5.1 (ssRNA) RNA: UUUGACAACUGAUCGUUCUUUCUUGUAUCAUGCUUCUUUCUCGAUCAGUUGUCUUU | 14.6 nM
Ic_S4_P5E.1_K5.1_C5.1_H5.1_A5.1_[T6G]_[A7T]_F5.1_[T8C]_[T9C]_[A10C]_T5.1 (ssRNA) RNA: UUUGACAACUGAUCGUUCUUUCUUGUAUGUCCCUUCUUUCUCGAUCAGUUGUCUUU | 66.1 nM
Ic_S4_P5E.1_K5.1_C5.1_H5.1_A5.1_[T5A]_[A7C]_F5.1_[T8C]_[T9G]_[A10C]_T5.1 (ssRNA) RNA: UUUGACAACUGAUCGUUCUUUCUUGUAAUCCGCUUCUUUCUCGAUCAGUUGUCUUU | 946 nM
Ic_S4_P5E.1_K5.1_C5.1_H5.1_A5.1_[T6G]_[A7T]_F5.1_[T8G]_[T9C]_[A10C]_T5.1 (ssRNA) RNA: UUUGACAACUGAUCGUUCUUUCUUGUAUGUGCCUUCUUUCUCGAUCAGUUGUCUUU | 67.2 nM
Ic_S4_P5E.1_K5.1_C5.1_H5.1_A5.1_F5.1_[T8C]_[T9C]_[A10T]_T5.1 (ssRNA) RNA: UUUGACAACUGAUCGUUCUUUCUUGUAUUACCUUUCUUUCUCGAUCAGUUGUCUUU | 160 nM
Ic_S4_P5E.1_K5.1_C5.1_H5.1_A5.1_[T5A]_[T6A]_[A7C]_F5.1_[T8C]_[T9G]_[A10C]_T5.1 (ssRNA) RNA: UUUGACAACUGAUCGUUCUUUCUUGUAAACCGCUUCUUUCUCGAUCAGUUGUCUUU | 703 nM
Ic_S4_P5E.1_K5.1_C5.1_H5.1_A5.1_[T6G]_[A7C]_F5.1_[T8C]_[T9A]_[A10T]_T5.1 (ssRNA) RNA: UUUGACAACUGAUCGUUCUUUCUUGUAUGCCAUUUCUUUCUCGAUCAGUUGUCUUU | 56.4 nM
Ic_S4_P5E.1_K5.1_C5.1_H5.1_A5.1_[T5A]_[A7T]_F5.1_[T9G]_[A10C]_T5.1 (ssRNA) RNA: UUUGACAACUGAUCGUUCUUUCUUGUAAUUUGCUUCUUUCUCGAUCAGUUGUCUUU | 46.7 nM
